According to US20040106198A1, “Inhibition of peptide cleavage in plants” (LARGE SCALE BIOLOGY CORPORATION, priority 2002, published 2004):

Each substance was assayed against Nicotianalisin (Nicotiana benthamiana subtilisin-like serine protease) (Nicotiana benthamiana) (assay: cell-based or functional assay).
Sequence of Nicotianalisin (Nicotiana benthamiana subtilisin-like serine protease) (Nicotiana benthamiana) (chain, as listed by the source limits assumed): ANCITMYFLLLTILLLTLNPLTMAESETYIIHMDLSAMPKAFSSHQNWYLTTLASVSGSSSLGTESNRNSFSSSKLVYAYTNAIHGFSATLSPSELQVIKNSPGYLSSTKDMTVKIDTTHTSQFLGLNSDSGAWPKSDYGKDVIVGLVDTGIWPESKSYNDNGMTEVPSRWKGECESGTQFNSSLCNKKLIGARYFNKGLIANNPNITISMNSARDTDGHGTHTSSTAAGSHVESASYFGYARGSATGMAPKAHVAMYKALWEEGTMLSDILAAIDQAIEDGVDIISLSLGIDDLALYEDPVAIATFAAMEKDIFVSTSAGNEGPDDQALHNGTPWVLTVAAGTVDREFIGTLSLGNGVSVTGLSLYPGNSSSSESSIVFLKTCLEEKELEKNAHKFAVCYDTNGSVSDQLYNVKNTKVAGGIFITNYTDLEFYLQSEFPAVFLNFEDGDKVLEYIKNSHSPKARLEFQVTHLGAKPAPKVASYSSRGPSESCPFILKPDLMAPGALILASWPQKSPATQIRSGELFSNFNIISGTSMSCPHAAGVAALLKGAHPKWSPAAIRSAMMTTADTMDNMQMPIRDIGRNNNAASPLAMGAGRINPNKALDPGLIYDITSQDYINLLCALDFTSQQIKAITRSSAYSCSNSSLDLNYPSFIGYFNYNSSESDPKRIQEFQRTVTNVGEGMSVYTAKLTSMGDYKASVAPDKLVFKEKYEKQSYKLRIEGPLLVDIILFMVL

Amastatin (peptide) was tested. Which % Inhibition of protease activity in IF (hydrolysis of 0.3 mM N-Suc-AAPL-p-NA after 30 min with inhibitor at 24 C) did it give?
Its % Inhibition of protease activity in IF (hydrolysis of 0.3 mM N-Suc-AAPL-p-NA after 30 min with inhibitor at 24 C) is 5%.

Antipain (peptide) was tested. Which % Inhibition of protease activity in IF (hydrolysis of 0.3 mM N-Suc-AAPL-p-NA after 30 min with inhibitor at 24 C) did it give?
The % Inhibition of protease activity in IF (hydrolysis of 0.3 mM N-Suc-AAPL-p-NA after 30 min with inhibitor at 24 C) was 77%.

How did the % Inhibition of protease activity in IF (hydrolysis of 0.3 mM N-Suc-AAPL-p-NA after 30 min with inhibitor at 24 C) turn out when Chymostatin (peptide) was run?
The % Inhibition of protease activity in IF (hydrolysis of 0.3 mM N-Suc-AAPL-p-NA after 30 min with inhibitor at 24 C) was 100%.

How did the % Inhibition of protease activity in IF (hydrolysis of 0.3 mM N-Suc-AAPL-p-NA after 30 min with inhibitor at 24 C) turn out when Cystain was run?
Its % Inhibition of protease activity in IF (hydrolysis of 0.3 mM N-Suc-AAPL-p-NA after 30 min with inhibitor at 24 C) is 2%.

Elastinal (peptide) was tested. Which % Inhibition of protease activity in IF (hydrolysis of 0.3 mM N-Suc-AAPL-p-NA after 30 min with inhibitor at 24 C) did it give?
Its % Inhibition of protease activity in IF (hydrolysis of 0.3 mM N-Suc-AAPL-p-NA after 30 min with inhibitor at 24 C) is 41%.

With Leupeptin (peptide) as the substance, how does the % Inhibition of protease activity in IF (hydrolysis of 0.3 mM N-Suc-AAPL-p-NA after 30 min with inhibitor at 24 C) read?
The % Inhibition of protease activity in IF (hydrolysis of 0.3 mM N-Suc-AAPL-p-NA after 30 min with inhibitor at 24 C) was 18%.

Which % Inhibition of protease activity in IF (hydrolysis of 0.3 mM N-Suc-AAPL-p-NA after 30 min with inhibitor at 24 C) does the source give for Pepstatin A (peptide) here?
Its % Inhibition of protease activity in IF (hydrolysis of 0.3 mM N-Suc-AAPL-p-NA after 30 min with inhibitor at 24 C) is 6%.

For pI-II, which % Inhibition of protease activity in IF (hydrolysis of 0.3 mM N-Suc-AAPL-p-NA after 30 min with inhibitor at 24 C) is on record?
The % Inhibition of protease activity in IF (hydrolysis of 0.3 mM N-Suc-AAPL-p-NA after 30 min with inhibitor at 24 C) was 2%.

With potato protease inhibitor I as the substance, how does the % Inhibition of protease activity in IF (hydrolysis of 0.3 mM N-Suc-AAPL-p-NA after 30 min with inhibitor at 24 C) read?
Its % Inhibition of protease activity in IF (hydrolysis of 0.3 mM N-Suc-AAPL-p-NA after 30 min with inhibitor at 24 C) is 30%.
